Experimental data from patent publication US20250250357A1 (NANJING ZAIMING PHARMACEUTICAL, published 2025).

Legend:
[1] = target: T1, human MSLN-FL-his protein (human, UniProt Q13421 296-580); experiment: ELISA, coated antigen, antibody 0.2 nM
T1 construct: Made in HEK293E cells, purified on nickel column; also called hMSLN-FL-his; human MSLN full-length protein; not shown: His tag

[2] = target: T1, human MSLN-FL-his protein; experiment: ELISA, coated antigen, no antibody (blank)
Method: (§1) The plate was sealed with a plastic film and incubated at 4° C. overnight. The next day, the plate was washed twice with PBST, and a blocking buffer [PBS+2% (w/w) BSA] was added for blocking at room temperature for 2 h. The blocking buffer was discarded, and a chimeric antibody or negative control antibody serially diluted from 100 nM was added at 50 μL/well. After incubation at 37° C. for 2 h, the plate was washed 3 times with PBST. […] After incubation at 37° C. for 2 h, the plate was washed 5 times with PBST. A TMB substrate was added at 50 μL/well for incubation at room temperature for 5-10 min, and then a stop solution (1.0 N HCl) was added at 50 μL/well.

[3] = target: T2, human MSLN-R1-his protein (human, UniProt Q13421 296-390); experiment: ELISA, coated antigen, antibody 0.2 nM
T2 construct: Made in HEK293E cells, purified on nickel column; also called hMSLN-R1-his; human MSLN-R1 protein; not shown: His tag
T2 chain: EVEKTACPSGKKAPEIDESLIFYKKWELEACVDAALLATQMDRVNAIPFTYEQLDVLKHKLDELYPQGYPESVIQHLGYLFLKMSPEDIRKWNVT

[4] = target: T1, human MSLN-FL-his protein; experiment: ELISA, coated antigen, antibody 0.0002 nM
[5] = target: T1, human MSLN-FL-his protein; experiment: ELISA, coated antigen, antibody 20 nM
Method: as §1

[6] = target: T2, human MSLN-R1-his protein; experiment: ELISA, coated antigen, antibody 0.0002 nM
Method: as §1

[7] = target: T1, human MSLN-FL-his protein; experiment: ELISA, coated antigen, antibody 2 nM
Method: as §1

[8] = target: T2, human MSLN-R1-his protein; experiment: ELISA, coated antigen, antibody 20 nM
Method: as §1

[9] = target: T2, human MSLN-R1-his protein; experiment: ELISA, coated antigen, antibody 200 nM
Method: as §1

[10] = target: T2, human MSLN-R1-his protein; experiment: ELISA, coated antigen, no antibody (blank)
Method: as §1

[11] = target: T1, human MSLN-FL-his protein; experiment: ELISA, coated antigen, antibody 0.002 nM
Method: as §1

[12] = target: T2, human MSLN-R1-his protein; experiment: ELISA, coated antigen, antibody 2 nM
Method: as §1

[13] = target: T2, human MSLN-R1-his protein; experiment: ELISA, coated antigen, antibody 0.02 nM
Method: as §1

[14] = target: T2, human MSLN-R1-his protein; experiment: ELISA, coated antigen, antibody 0.002 nM
Method: as §1

[15] = target: T1, human MSLN-FL-his protein; experiment: ELISA, coated antigen, antibody 0.02 nM
Method: as §1

[16] = target: T1, human MSLN-FL-his protein; experiment: ELISA, coated antigen, antibody 200 nM
Method: as §1

| Binder | OD450 [1] | OD450 [2] | OD450 [3] | OD450 [4] | OD450 [5] | OD450 [6] | OD450 [7] | OD450 [8] | OD450 [9] | OD450 [10] | OD450 [11] | OD450 [12] | OD450 [13] | OD450 [14] | OD450 [15] | OD450 [16] |
| --- | --- | --- | --- | --- | --- | --- | --- | --- | --- | --- | --- | --- | --- | --- | --- | --- |
| S009-F7.41.18 chimeric antibody (antibody, human IgG1, kappa, V domains shown, Human-murine chimeric antibody, human IgG1/kappa constant regions) VH: QVQLQQPGTELVKPGASVKLSCKASDYTFTSYWMHWVKQRPGQGLEWIGSINPSNGDTYYNEKFKNKATLTVDKSSSTAYMQLSSLTSDDSAVYYCARGWYFDVWGTGTTVTVSS VL: not shown | 2.04 | 0.06 | 0.06 | 0.08 | 2.24 | 0.06 | 2.26 | 0.07 | 0.09 | 0.06 | 0.25 | 0.06 | 0.05 | 0.06 | 1 | 2.3 |
| S009-F7.44.20 chimeric antibody (antibody, human IgG1, kappa, V domains shown, Human-murine chimeric antibody, human IgG1/kappa constant regions) VH: EVQLQQSGPELVKPGASVKIPCKASGYTFTDYNMDWVKQSHGKSLEWIGDINPSTGGTIYNQKFNGKATLTEDKSASTVYMEFRSLTSDDTAVYYCARRRIGTGYFDVWGTGTTVTVSS VL: QIVLTQSPALMSASPGEKVTLTCSASSSVISSYLSWYQQKPGSSPKLLIYRTSNLASGVPARFSGSGSGTSYSLTISSMEAEDAASYFCHQWSSFPYTFGGGTKLEIKR | 2.26 | 0.06 | 0.04 | 0.26 | 2.21 | 0.04 | 2.24 | 0.05 | 0.07 | 0.06 | 0.93 | 0.04 | 0.04 | 0.04 | 1.82 | 2.36 |
| S009-F7.48.1 chimeric antibody (antibody, human IgG1, kappa, V domains shown, Human-murine chimeric antibody, human IgG1/kappa constant regions) VH: QVQLQQPGTELVKPGASVKLSCKASGYTFTSYWMHWVKQRPGQGLEWIGNINPSNGGTNNNENFKSKATLTVDTSSSTAYMQLSSLTSEDSAVYYCVRNGYHGYWYFDVWGTGTTVTVSS VL: DIVMTQSQKFMSTSVGDRVSVTCKASQNVGTNVAWYQQQPGQSPKALIYSASYRYSGVPDRFTGSVSGTDFTLTISNVQSEDLAEYFCQQYNSYPLTFGGGTKLEIKR | 1.87 | 0.06 | 0.04 | 0.09 | 2.21 | 0.04 | 2.12 | 0.05 | 0.07 | 0.06 | 0.24 | 0.04 | 0.04 | 0.04 | 0.86 | 2.62 |
| S009-F7.53.2 chimeric antibody (antibody, human IgG1, kappa, V domains shown, Human-murine chimeric antibody, human IgG1/kappa constant regions) VH: EVQLQQSGPELVKPGASVKIPCKTSGYTFTDYNMDWVKQSHGKSLEWIGDINPNTDGAIYNQKFQNKATLTVDKSSSTAYMELRSLTSEDTAVYYCTRRKLGRKFFDYWGQGTTLTVSS VL: QIVLTQSPAIMSASPGEQVTMTCSASSSVGYMNWYQQKPGSSPRLLIYDTSNLASGVPVHFSGSGSGTSYSLTISRMEAAFAATYYCQQWYVYPYTFGGGTKLEIKR | 1.53 | 0.06 | 0.04 | 0.06 | 2.2 | 0.05 | 2.1 | 0.05 | 0.07 | 0.06 | 0.12 | 0.05 | 0.04 | 0.05 | 0.47 | 2.6 |
| S009-F7.61.21 chimeric antibody (antibody, human IgG1, kappa, V domains shown, Human-murine chimeric antibody, human IgG1/kappa constant regions) VH: DVQLQQSGPELVEPGASVRIPCKAAGHTFTDYNVDWVKQSHGQSLEWIGDVNPNTDGAIYNQKFEGKATLTVDTSSSTAYMELRSLTSEDTAVYFCARRRLGQGGFDSWGQGTTLTVSS VL: QVVLTQSPAIMSASPGEKVTLTCGASSSLISKYLYWYQQKPGSSPKLWIYSTSNLASGVPARFSGSGSGTSYSLTISSMEAEDAASYFCHQWSSYPYTFGGGTKVEIKR | 1.96 | 0.06 | 0.05 | 0.09 | 2.14 | 0.05 | 2.14 | 0.05 | 0.07 | 0.07 | 0.23 | 0.05 | 0.05 | 0.05 | 0.95 | 2.15 |
| S009-F7.65.13 chimeric antibody (antibody, human IgG1, kappa, V domains shown, Human-murine chimeric antibody, human IgG1/kappa constant regions) VH: EVQLQQSGPELVKPGTSVKILCKASGDTFTAYNMDWVKQRHGQSLEWIGDINPNTDSTIYNQKFEGKAILTVDKSSSTAYMELRSLTSEDTAVYYCARRKLGRGYFDYWGQGTTLTVSS VL: QIVLTQSPAIMSASPGEKVTMTCSVNLSVRYIYWYQQKPGSSPRLLIHDTSNLASGVPVRFSGSGSGTSYSLTISRMEAEDAATYYCQQWSSFPYTFGGGTKLEIKR | 2.1 | 0.06 | 0.05 | 0.24 | 2.12 | 0.05 | 2.11 | 0.05 | 0.08 | 0.07 | 0.52 | 0.05 | 0.05 | 0.05 | 1.35 | 2.13 |
| S009-F7.66.12 chimeric antibody (antibody, human IgG1, kappa, V domains shown, Human-murine chimeric antibody, human IgG1/kappa constant regions) VH: QIPLQQSGPELVKPGASVRISCKASDYAFSSSWMNWVKQRPEKGLEWIGRIFVESGNTHYNDKFNGKATLTADKSSRTAYIQLSSLTSEDSAVYFCTRENIFYHGHSSWFAYWGQGTLVTVSA VL: DIVLTQSPASLVVSLGQRATISCRAGESVDDFGISYVHWYQQKPGQPPKLLIYRAANLESGIPARFSGSGSRTDFTLTINPVETDDVAIYYCQQNNKDPFTFGSGTKLEIKR | 2.24 | 0.07 | 0.04 | 0.77 | 2.2 | 0.06 | 2.23 | 0.06 | 0.13 | 0.06 | 1.19 | 0.05 | 0.04 | 0.04 | 1.77 | 2.1 |
| S009-F7.67.12 chimeric antibody (antibody, human IgG1, kappa, V domains shown, Human-murine chimeric antibody, human IgG1/kappa constant regions) VH: QVQLQQPGTELVKPGASVRLSCRASGYSFSSYWMHWVKQRPGQGLEWLGNINPTTGDINYNEKFRNRATLAVDKSSTTAYLQLTSLTSEDSAVYFCVRHDGFLWGQGTTLTVSS VL: DIQMTQSPASLSASVGETVTITCRASENIYSYLAWYQQKQGKSPQLLVYYAKTLAEGVSSRFSGSGSGTQFSLKINSLQPEDFGTYYCQHQFGTPRTFGGGTKLEIRR | 1.78 | 0.05 | 0.05 | 0.13 | 2.23 | 0.04 | 2.07 | 0.05 | 0.07 | 0.07 | 0.23 | 0.05 | 0.05 | 0.05 | 0.75 | 1.96 |
| S009-F7.69.8 chimeric antibody (antibody, human IgG1, kappa, V domains shown, Human-murine chimeric antibody, human IgG1/kappa constant regions) VH: EVHLQQSGPELVKPGASVRIPCKASGYTFTDYNMDWVKQSHGKSLEWIGDINPDNGGTIYTQKFKGKATLTVDKSSSTAYMELRSLTSEDTAVYYCARRLHYYGSSGLDYWGQGTTLTVSS VL: DIQMTQSPASLSAYVGETVTITCRASGNIHNYLAWYQQKQGKSPQLLVYNAKTLADGVPSRFSGSGSGTQYSLKINSLQPEDFGSYYCQHFWSTVWTFGGGTKLEIKR | 2.15 | 0.06 | 0.05 | 0.13 | 2.26 | 0.05 | 2.29 | 0.06 | 0.11 | 0.07 | 0.43 | 0.04 | 0.04 | 0.05 | 1.42 | 2.1 |
